# Laboratory results: paper PMC6497169 (Nature microbiology, 2017)
# B1: DotL(590–783)–DotN–IcmSW–LvgA with the (His)10-MBP tag on DotL(590–783) (complex)
# chain 1: VEPPPDDYLMKLQKQLASFQSILESGDLSINKAVENEEITLISKALKESTIVEPIERGVAALIAFHGQNEPEPVEDIVEEEVEGALTIFSKLRIDPNAPPILVADKEVFSEPLLPINETRNQMITIERLAGAKDKYAGTVANELIKDFQIATSYPPEERDVIDVQELTGIIRDLSAKISAEREKANKKAAEELT
# chain 2: MADNQQRCELKLIASPGSWRLYSARKIDERFKSYEQKIFQRDRYTCQFCGFQARLYQDIVNLDGDYTNNRLSNLVTACCFCAQCFFVESVGVGGYGGGTLIYLPELTQAELNSLCHVLFCAITNDTGYKSSAQNIYRSFKFRSQIVEEKFGEGTSDPAIFGQLMIDSGVNSEEIREKLFKNIRLLPSRAKFRKQIEKWAASALEEIAD
# chain 3: MERDISKCMAKIAASMNAKFYLNDRFVSFDEVFSETGLLPAIAKRADQLCSLCLGYGLGATYDESEGALLGIRVVFDEVTPNVLRLLCMTDVMNELIQGGPSRDYTPLDELMYD
# chain 4: MPDLSHEASAKYWFEYLDPMIYRVITFMESVENWTLDGNPELEEAMKQLGQELDDIEKIDLGLLAEEDKFIRIVGNIKSGRGLRLLQAIDTVHPGSASRVLIHAEETSLSSSDPAGFFLKRNIVFERLRLLSRVFCQYRLKLVLRALEGDE
# chain 5: MADGDIEIKAGFVDTDLDDRKLTMIDDLNNPLAIVERVYLIWWHWADFHLHVISPHIDTITPAIVIEPELIPGSNDHEFVYSIHDSGSKLSTSKSQDMFSAGMSMCKLFYTIEKMVYILVERLKSGGVSMEAEVQIAFAGHEIAQRKAFESIINLPYNVVVTNFDPGIWGEKYLQNVKRLADKGYGYPPESPRKIYMHPVSSGTTARK
# B2: SetA (natural protein)
# chain: MYKIYSYLGWRIDMKTENLPQAGQEAQIDKKIHFIWVGHIMPQKNIQVVSEWAEKNPGYETIIWVDKKIAPAKELDLFILDMKSKGITVKDINEEGVCRDSIRHELDQESPNYGMVSDMLRLNILAAEGGIYLDSDILCSAPFPDEIYAPFGFLLSPWSQGANNTLCNDIILCSKGNQIIQQLADAIEQSYIARDSFEFTHEYASMKETKGERIAKTLGVTGPGFLFHQLKKMGILNDKSEMEAIHWELQDQRYLIDGSVKEPDYFYVPQNNTNDASWVPSIKRPGIENMSFQERLENAVQLIAFDIQKTGLFNLDHYANELKVKQNSWCIAAETSPELKPDSYLLIRPRDKTGEWTLYYVDEDKKLNPVTLPVIKGAIKLSEVSDPLRKFHTLLSQVSDPVNPTAHELKQIGRALIELKPRQDEWHCKNKWSGAEEIAQELWQRITSNETLRAQIKQCFTQFESLKPRVAELGLTRASGAGTEVEAHESTVKEQEIISQNTVGEEGTKEKNSVQLASENSSDEKIKTAHDLIDEIIQDVIQLDGKLGLLGGNTRQLEDGRVINIPNGAAMIFDDYKKYKQGELTAESALESMIKIAKLSNQLNRHTFFNQRQPETGQFYKKVAAIDLQTTIAAEYDNNHGLRI
# Legend:
# VpdB = VpdB (L. pneumophila, UniProt Q5ZW60 1-598); assay: BLI
# [1] = biological target: B1; assay: BLI
Binder,Kd (VpdB),koff (VpdB),kon (VpdB),Kd [1],koff [1],kon [1]
B1,~332 nM,0.0039 s⁻¹,11800 M⁻¹ s⁻¹,–,–,–
B2,–,–,–,1600 nM,0.0203 s⁻¹,13100 M⁻¹ s⁻¹
